From paper PMC9482650, “Quantitative fragmentomics allow affinity mapping of interactomes” (Nature Communications, 2022)
Values belong to the binder of their own block, whether it stands above or below them.

Legend:
Assay in all cases: holdup assay
Design in all cases: key: below the threshold = too weak to quantify, mostly under pKd 3.1 to 4
APBA1_1, Q02410 = target: T1, APBA1_1, Q02410
T1 sequence (Q02410 651-752, limits assumed, looked up): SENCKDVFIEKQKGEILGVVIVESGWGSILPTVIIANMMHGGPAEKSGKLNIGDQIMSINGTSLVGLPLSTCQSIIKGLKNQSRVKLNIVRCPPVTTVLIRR

APBA1_2, Q02410 = target: T2, APBA1_2, Q02410
T2 sequence (Q02410 742-832, limits assumed, looked up): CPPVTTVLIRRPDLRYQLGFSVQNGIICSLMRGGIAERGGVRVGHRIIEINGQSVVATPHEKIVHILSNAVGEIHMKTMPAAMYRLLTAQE

DLG1_1, Q12959 = target: DLG1_1, Q12959
DLG4_1, P78352 = target: DLG4_1, P78352
DLG4_3, P78352 = target: DLG4_3, P78352
DVL3, Q92997 = target: T3, DVL3, Q92997
T3 sequence (Q92997 244-331, limits assumed, looked up): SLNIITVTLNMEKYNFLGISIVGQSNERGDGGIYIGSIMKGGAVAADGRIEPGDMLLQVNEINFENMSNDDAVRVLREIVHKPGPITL

FRMPD2_1, Q68DX3 = target: FRMPD2_1, Q68DX3
GIPC2, Q8TF65 = target: GIPC2, Q8TF65
GORASP2, Q9H8Y8 = target: GORASP2, Q9H8Y8
GRIP1_5, Q9Y3R0 = target: T4, GRIP1_5, Q9Y3R0
T4 sequence (Q9Y3R0 568-668, limits assumed, looked up): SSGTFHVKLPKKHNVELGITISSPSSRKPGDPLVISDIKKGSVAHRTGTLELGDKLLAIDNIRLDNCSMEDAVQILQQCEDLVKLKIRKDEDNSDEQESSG

GRIP2_4, Q9C0E4 = target: GRIP2_4, Q9C0E4
GRIP2_7, Q9C0E4 = target: GRIP2_7, Q9C0E4
IL16_3, Q14005 = target: IL16_3, Q14005
Inadl_10, Q8NI35 = target: Inadl_10, Q8NI35
Inadl_8, Q8NI35 = target: Inadl_8, Q8NI35
LIMK2, P53671 = target: LIMK2, P53671
LIN7C, Q9NUP9 = target: T5, LIN7C, Q9NUP9
T5 sequence (Q9NUP9 88-185, limits assumed, looked up): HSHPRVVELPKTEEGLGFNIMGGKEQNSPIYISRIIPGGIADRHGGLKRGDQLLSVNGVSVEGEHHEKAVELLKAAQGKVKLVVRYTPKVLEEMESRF

LNX2_3, Q8N448 = target: T6, LNX2_3, Q8N448
T6 sequence (Q8N448 463-564, limits assumed, looked up): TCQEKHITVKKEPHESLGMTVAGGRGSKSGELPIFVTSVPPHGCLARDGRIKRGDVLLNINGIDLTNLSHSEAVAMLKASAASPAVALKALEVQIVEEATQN

MAST2, Q6P0Q8 = target: MAST2, Q6P0Q8
MPDZ_12, O75970 = target: T7, MPDZ_12, O75970
T7 sequence (O75970 1857-1958, limits assumed, looked up): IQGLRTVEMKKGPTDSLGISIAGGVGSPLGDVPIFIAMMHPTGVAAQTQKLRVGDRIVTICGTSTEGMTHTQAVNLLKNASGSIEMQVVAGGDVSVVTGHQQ

NHERF3_4, Q5T2W1 = target: T8, NHERF3_4, Q5T2W1
T8 sequence (Q5T2W1 373-468, limits assumed, looked up): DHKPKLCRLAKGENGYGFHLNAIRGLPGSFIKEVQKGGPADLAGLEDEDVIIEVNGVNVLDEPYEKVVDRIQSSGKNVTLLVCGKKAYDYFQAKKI

NHERF4_4, Q86UT5 = target: NHERF4_4, Q86UT5
PDZD2_2, O15018 = target: T9, PDZD2_2, O15018
T9 sequence (O15018 329-429, limits assumed, looked up): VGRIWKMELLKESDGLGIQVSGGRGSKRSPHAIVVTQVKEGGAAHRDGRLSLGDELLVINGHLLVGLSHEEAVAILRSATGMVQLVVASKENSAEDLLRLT

PTPN3, P26045 = target: PTPN3, P26045
SCRIB_2, Q14160 = target: SCRIB_2, Q14160
SNTG1, Q9NSN8 = target: T10, SNTG1, Q9NSN8
T10 sequence (Q9NSN8 52-150, limits assumed, looked up): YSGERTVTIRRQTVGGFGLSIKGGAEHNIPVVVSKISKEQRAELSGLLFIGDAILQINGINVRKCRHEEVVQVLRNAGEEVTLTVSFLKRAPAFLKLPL

SNTG2, Q9NY99 = target: T11, SNTG2, Q9NY99
T11 sequence (Q9NY99 68-166, limits assumed, looked up): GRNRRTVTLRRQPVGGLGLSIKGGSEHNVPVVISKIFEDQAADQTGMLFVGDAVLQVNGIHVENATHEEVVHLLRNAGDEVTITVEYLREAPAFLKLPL

[1] = plain residues with an end cap or a label only (N-terminal biotin on a linker: ado-ado)
[2] = plain residues with an end cap or a label only (N-terminal biotin on a linker: ahx)

Sequence of SCRIB_2, Q14160 (Q14160 857-960): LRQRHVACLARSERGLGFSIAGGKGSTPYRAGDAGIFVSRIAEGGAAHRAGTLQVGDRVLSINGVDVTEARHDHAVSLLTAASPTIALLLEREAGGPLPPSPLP
Sequence of Inadl_8, Q8NI35 (Q8NI35 1425-1530): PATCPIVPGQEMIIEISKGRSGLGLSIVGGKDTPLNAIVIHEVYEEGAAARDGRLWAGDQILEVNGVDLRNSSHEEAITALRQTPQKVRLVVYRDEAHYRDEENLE
Sequence of NHERF4_4, Q86UT5 (Q86UT5 464-550): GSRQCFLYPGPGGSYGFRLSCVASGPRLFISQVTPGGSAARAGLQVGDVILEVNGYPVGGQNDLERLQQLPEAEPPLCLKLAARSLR
Sequence of Inadl_10, Q8NI35 (Q8NI35 1673-1763): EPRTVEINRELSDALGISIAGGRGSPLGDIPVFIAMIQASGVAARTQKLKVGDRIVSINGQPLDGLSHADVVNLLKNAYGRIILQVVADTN
Sequence of FRMPD2_1, Q68DX3 (Q68DX3 770-861): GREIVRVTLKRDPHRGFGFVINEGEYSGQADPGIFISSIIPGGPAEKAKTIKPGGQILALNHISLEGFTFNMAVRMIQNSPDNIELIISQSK
Sequence of LIMK2, P53671 (P53671 143-248): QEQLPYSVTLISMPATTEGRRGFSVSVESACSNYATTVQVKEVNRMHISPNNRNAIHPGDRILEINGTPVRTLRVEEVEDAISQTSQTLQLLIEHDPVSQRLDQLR
Sequence of DLG4_3, P78352 (P78352 306-403): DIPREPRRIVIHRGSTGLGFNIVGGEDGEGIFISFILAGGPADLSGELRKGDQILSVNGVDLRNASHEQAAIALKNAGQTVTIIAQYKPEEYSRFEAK
Sequence of MAST2, Q6P0Q8 (Q6P0Q8 1099-1202): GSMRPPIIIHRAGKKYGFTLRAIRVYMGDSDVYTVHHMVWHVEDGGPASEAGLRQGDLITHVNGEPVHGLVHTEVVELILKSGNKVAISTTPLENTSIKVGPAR
Sequence of IL16_3, Q14005 (Q14005 1107-1207): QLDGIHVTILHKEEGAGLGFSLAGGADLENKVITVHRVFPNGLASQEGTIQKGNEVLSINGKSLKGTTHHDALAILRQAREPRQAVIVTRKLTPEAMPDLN
Sequence of GRIP2_7, Q9C0E4 (Q9C0E4 934-1023): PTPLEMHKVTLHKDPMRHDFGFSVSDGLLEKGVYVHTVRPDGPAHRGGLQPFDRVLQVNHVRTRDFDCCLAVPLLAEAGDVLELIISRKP
Sequence of GRIP2_4, Q9C0E4 (Q9C0E4 446-548): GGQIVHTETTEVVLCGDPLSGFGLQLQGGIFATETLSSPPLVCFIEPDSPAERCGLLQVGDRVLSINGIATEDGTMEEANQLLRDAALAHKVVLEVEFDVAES
Sequence of DLG4_1, P78352 (P78352 62-152): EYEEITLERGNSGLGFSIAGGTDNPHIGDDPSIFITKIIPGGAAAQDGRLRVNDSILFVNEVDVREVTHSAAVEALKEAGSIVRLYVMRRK
Sequence of GIPC2, Q8TF65 (Q8TF65 112-203): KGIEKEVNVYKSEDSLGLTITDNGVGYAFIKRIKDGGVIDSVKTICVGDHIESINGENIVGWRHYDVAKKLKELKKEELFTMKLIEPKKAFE
Sequence of PTPN3, P26045 (P26045 505-587): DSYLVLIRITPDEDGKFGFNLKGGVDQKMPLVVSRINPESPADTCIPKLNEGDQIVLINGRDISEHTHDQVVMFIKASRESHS

Binder: GEDRSPPTAL [MKNK1, Q9BUB5]
pKd (APBA1_1, Q02410; [1]): below the threshold
pKd (APBA1_2, Q02410; [1]): 4.34
pKd (DLG1_1, Q12959; [1]): below the threshold
pKd (DLG4_1, P78352; [1]): below the threshold
pKd (DLG4_3, P78352; [1]): 3.5
pKd (DVL3, Q92997; [1]): below the threshold
pKd (FRMPD2_1, Q68DX3; [1]): below the threshold
pKd (GIPC2, Q8TF65; [1]): below the threshold
pKd (GORASP2, Q9H8Y8; [1]): below the threshold
pKd (GRIP1_5, Q9Y3R0; [1]): below the threshold
pKd (GRIP2_4, Q9C0E4; [1]): below the threshold
pKd (GRIP2_7, Q9C0E4; [1]): below the threshold
pKd (IL16_3, Q14005; [1]): below the threshold
pKd (Inadl_10, Q8NI35; [1]): below the threshold
pKd (Inadl_8, Q8NI35; [1]): below the threshold
pKd (LIMK2, P53671; [1]): below the threshold
pKd (LIN7C, Q9NUP9; [1]): 4.02
pKd (LNX2_3, Q8N448; [1]): below the threshold
pKd (MAST2, Q6P0Q8; [1]): 4.85
pKd (MPDZ_12, O75970; [1]): below the threshold
pKd (NHERF3_4, Q5T2W1; [1]): 3.7
pKd (NHERF4_4, Q86UT5; [1]): below the threshold
pKd (PDZD2_2, O15018; [1]): below the threshold
pKd (PTPN3, P26045; [1]): 4.06
pKd (SCRIB_2, Q14160; [1]): below the threshold
pKd (SNTG1, Q9NSN8; [1]): below the threshold
pKd (SNTG2, Q9NY99; [1]): 3.7

Binder: LPAVCYDIDI [PTTG2, Q9NZH5]
pKd (APBA1_1, Q02410; [1]): below the threshold
pKd (APBA1_2, Q02410; [1]): below the threshold
pKd (DLG1_1, Q12959; [1]): below the threshold
pKd (DLG4_1, P78352; [1]): below the threshold
pKd (DLG4_3, P78352; [1]): below the threshold
pKd (DVL3, Q92997; [1]): below the threshold
pKd (FRMPD2_1, Q68DX3; [1]): below the threshold
pKd (GIPC2, Q8TF65; [1]): 4.08
pKd (GORASP2, Q9H8Y8; [1]): 3.66
pKd (GRIP1_5, Q9Y3R0; [1]): below the threshold
pKd (GRIP2_4, Q9C0E4; [1]): below the threshold
pKd (GRIP2_7, Q9C0E4; [1]): below the threshold
pKd (IL16_3, Q14005; [1]): below the threshold
pKd (Inadl_10, Q8NI35; [1]): below the threshold
pKd (Inadl_8, Q8NI35; [1]): below the threshold
pKd (LIMK2, P53671; [1]): below the threshold
pKd (LIN7C, Q9NUP9; [1]): 4.01
pKd (LNX2_3, Q8N448; [1]): below the threshold
pKd (MAST2, Q6P0Q8; [1]): 5
pKd (MPDZ_12, O75970; [1]): 3.48
pKd (NHERF3_4, Q5T2W1; [1]): below the threshold
pKd (NHERF4_4, Q86UT5; [1]): 4.9
pKd (PDZD2_2, O15018; [1]): 4.17
pKd (PTPN3, P26045; [1]): 4.22
pKd (SCRIB_2, Q14160; [1]): below the threshold
pKd (SNTG1, Q9NSN8; [1]): 3.64
pKd (SNTG2, Q9NY99; [1]): below the threshold

Binder: QNTDDVQTSF [ACE2, Q9BYF1]
pKd (APBA1_1, Q02410; [2]): below the threshold
pKd (APBA1_2, Q02410; [2]): below the threshold
pKd (DLG1_1, Q12959; [2]): below the threshold
pKd (DLG4_1, P78352; [2]): below the threshold
pKd (DLG4_3, P78352; [2]): below the threshold
pKd (DVL3, Q92997; [2]): below the threshold
pKd (FRMPD2_1, Q68DX3; [2]): below the threshold
pKd (GIPC2, Q8TF65; [2]): below the threshold
pKd (GORASP2, Q9H8Y8; [2]): below the threshold
pKd (GRIP1_5, Q9Y3R0; [2]): below the threshold
pKd (GRIP2_4, Q9C0E4; [2]): below the threshold
pKd (GRIP2_7, Q9C0E4; [2]): below the threshold
pKd (IL16_3, Q14005; [2]): below the threshold
pKd (Inadl_10, Q8NI35; [2]): below the threshold
pKd (Inadl_8, Q8NI35; [2]): below the threshold
pKd (LIMK2, P53671; [2]): below the threshold
pKd (LIN7C, Q9NUP9; [2]): below the threshold
pKd (LNX2_3, Q8N448; [2]): below the threshold
pKd (MAST2, Q6P0Q8; [2]): 5.13
pKd (MPDZ_12, O75970; [2]): below the threshold
pKd (NHERF3_4, Q5T2W1; [2]): 3.57
pKd (NHERF4_4, Q86UT5; [2]): below the threshold
pKd (PDZD2_2, O15018; [2]): below the threshold
pKd (PTPN3, P26045; [2]): 4.45
pKd (SCRIB_2, Q14160; [2]): below the threshold
pKd (SNTG1, Q9NSN8; [2]): below the threshold
pKd (SNTG2, Q9NY99; [2]): below the threshold

The remaining lines, values ahead:

pKd (APBA1_1, Q02410; [1]): below the threshold
pKd (APBA1_2, Q02410; [1]): 3.92
pKd (DLG1_1, Q12959; [1]): below the threshold
pKd (DLG4_1, P78352; [1]): below the threshold
pKd (DLG4_3, P78352; [1]): below the threshold
pKd (DVL3, Q92997; [1]): below the threshold
pKd (FRMPD2_1, Q68DX3; [1]): below the threshold
pKd (GIPC2, Q8TF65; [1]): below the threshold
pKd (GORASP2, Q9H8Y8; [1]): below the threshold
pKd (GRIP1_5, Q9Y3R0; [1]): below the threshold
pKd (GRIP2_4, Q9C0E4; [1]): below the threshold
pKd (GRIP2_7, Q9C0E4; [1]): below the threshold
pKd (IL16_3, Q14005; [1]): below the threshold
pKd (Inadl_10, Q8NI35; [1]): below the threshold
pKd (Inadl_8, Q8NI35; [1]): 4.22
pKd (LIMK2, P53671; [1]): below the threshold
pKd (LIN7C, Q9NUP9; [1]): below the threshold
pKd (LNX2_3, Q8N448; [1]): below the threshold
pKd (MAST2, Q6P0Q8; [1]): below the threshold
pKd (MPDZ_12, O75970; [1]): below the threshold
pKd (NHERF3_4, Q5T2W1; [1]): below the threshold
pKd (NHERF4_4, Q86UT5; [1]): below the threshold
pKd (PDZD2_2, O15018; [1]): 3.98
pKd (PTPN3, P26045; [1]): below the threshold
pKd (SCRIB_2, Q14160; [1]): below the threshold
pKd (SNTG1, Q9NSN8; [1]): below the threshold
pKd (SNTG2, Q9NY99; [1]): below the threshold
Binder: NNNVVKVDSV [MTNR1A, P48039]

pKd (APBA1_1, Q02410; [1]): below the threshold
pKd (APBA1_2, Q02410; [1]): below the threshold
pKd (DLG1_1, Q12959; [1]): 3.58
pKd (DLG4_1, P78352; [1]): below the threshold
pKd (DLG4_3, P78352; [1]): below the threshold
pKd (DVL3, Q92997; [1]): below the threshold
pKd (FRMPD2_1, Q68DX3; [1]): below the threshold
pKd (GIPC2, Q8TF65; [1]): below the threshold
pKd (GORASP2, Q9H8Y8; [1]): below the threshold
pKd (GRIP1_5, Q9Y3R0; [1]): below the threshold
pKd (GRIP2_4, Q9C0E4; [1]): below the threshold
pKd (GRIP2_7, Q9C0E4; [1]): below the threshold
pKd (IL16_3, Q14005; [1]): below the threshold
pKd (Inadl_10, Q8NI35; [1]): below the threshold
pKd (Inadl_8, Q8NI35; [1]): below the threshold
pKd (LIMK2, P53671; [1]): below the threshold
pKd (LIN7C, Q9NUP9; [1]): 4.11
pKd (LNX2_3, Q8N448; [1]): below the threshold
pKd (MAST2, Q6P0Q8; [1]): 4.84
pKd (MPDZ_12, O75970; [1]): below the threshold
pKd (NHERF3_4, Q5T2W1; [1]): below the threshold
pKd (NHERF4_4, Q86UT5; [1]): below the threshold
pKd (PDZD2_2, O15018; [1]): 4.65
pKd (PTPN3, P26045; [1]): 4.97
pKd (SCRIB_2, Q14160; [1]): 3.69
pKd (SNTG1, Q9NSN8; [1]): 4.61
pKd (SNTG2, Q9NY99; [1]): 4.51
Binder: SVTSERETNI [SLC16A7, O60669]
